Substitutions are numbered along the chain they refer to. Numbers in names are those of the source.
B1: Construct 4, JB1-2XQBP1 (designed binder)
chain: MGKDYYQTLGLARGASDEEIKRAYRRQALRYHPDKNKEPGAEEKFKEIAEAYDVLSDPRKREIFDRYGEEGLKGSDIGGGGSGGGGSGGGGSGGGGSAAASNWKWWPGIFDGLESNWKWWPGIFD
B2: Construct 34, JB1-QBP1-QBP1 (1) (designed binder)
chain: MGKDYYQTLGLARGASDEEIKRAYRRQALRYHPDKNKEPGAEEKFKEIAEAYDVLSDPRKREIFDRYGEEGLKGSGGGGSGGGGSGGGGSGGGGSAAASNWKWWPGIFDLEGDYKDDDDKGSRAAASNWKWWPGIFDLE
B3: Construct 59, JB13-QBP1-QBP1 (designed binder)
chain: MGQDYYSVLGITRNSEDAQIKQAYRRLALKHHPLKSNEPSSAEIFRQIAEAYDVLSDPMKRGIYDKFGEEGLKGGDIGGGGSGGGGSGGGGSAAASNWKWWPGIFDLEGDYKDDDDKGSRAAASNWKWWPGIFDLE
B4: Construct 61, JC7-QBP1-QBP1 (designed binder)
chain: MDYYKILGVDKNASEDEIKKAYRKRALMHHPDRHSGASAEVQKEEEKKFKEVGEAFTILSDPKKKTRYDSGQDIGGGGSGGGGSGGGGSAAASNWKWWPGIFDLEGDYKDDDDKGSRAAASNWKWWPGIFDLE
B5: Construct 62, DnaJ-QBP1-QBP1 (designed binder)
chain: MAKQDYYEILGVSKTAEEREIRKAYKRLAMKYHPDRNQGDKEAEAKFKEIKEAYEVLTDSQKRAAYDQYGHADIGGGGSGGGGSGGGGSAAASNWKWWPGIFDLEGDYKDDDDKGSRAAASNWKWWPGIFDLE
B6: Construct 14, JB1(1-108)-2XQBP1 (designed binder)
chain: MGKDYYQTLGLARGASDEEIKRAYRRQALRYHPDKNKEPGAEEKFKEIAEAYDVLSDPRKREIFDRYGEEGLKGSGPSGGSGGGANGTSFSYTFHGDPHAMFAEFFGGDIGGGGSGGGGSGGGGSGGGGSAAASNWKWWPGIFDGLESNWKWWPGIFD
B7: Construct 10, JB1(19-43)-2XQBP1 (designed binder)
chain: MGTGSEFEIKRAYRRQALRYHPDKNKEPGAEEDIGGGGSGGGGSGGGGSGGGGSAAASNWKWWPGIFDGLESNWKWWPGIFD
B8: Construct 9, JB1(20-31)-2XQBP1 (designed binder)
chain: MGTGSEFIKRAYRRQALRYDIGGGGSGGGGSGGGGSGGGGSAAASNWKWWPGIFDGLESNWKWWPGIFD
B9: Construct 8, JB1(P33Q)-2XQBP1 (designed binder)
chain: B1 chain with P33Q
B10: Construct 12, JB1(1-57)-2XQBP1 (designed binder)
chain: MGKDYYQTLGLARGASDEEIKRAYRRQALRYHPDKNKEPGAEEKFKEIAEAYDVLSDDIGGGGSGGGGSGGGGSGGGGSAAASNWKWWPGIFDGLESNWKWWPGIFD
B11: Construct 5, JB1-3XQBP1 (designed binder)
chain: MGKDYYQTLGLARGASDEEIKRAYRRQALRYHPDKNKEPGAEEKFKEIAEAYDVLSDPRKREIFDRYGEEGLKGSGGGGSGGGGSGGGGSGGGGSGSSNWKWWPGIAAASNWKWWPGILESNWKWWPGIFD
B12: Construct 2, JB1-QBP1 (designed binder)
chain: MGKDYYQTLGLARGASDEEIKRAYRRQALRYHPDKNKEPGAEEKFKEIAEAYDVLSDPRKREIFDRYGEEGLKGSDIGGGGSGGGGSGGGGSGGGGSAAASNWKWWPGIFDGLE
B13: Construct 6, QBP1-JB1-QBP1 (designed binder)
chain: MGKPIPNPLLGLDSTGTGSSNWKWWPGIFDEFMGKDYYQTLGLARGASDEEIKRAYRRQALRYHPDKNKEPGAEEKFKEIAEAYDVLSDPRKREIFDRYGEEGLKGSDIGGGGSGGGGSGGGGSGGGGSAAASNWKWWPGIFDGLE
B14: Construct 7, QBP1-JB1-2XQBP1 (designed binder)
chain: MGKPIPNPLLGLDSTGTGSSNWKWWPGIFDEFMGKDYYQTLGLARGASDEEIKRAYRRQALRYHPDKNKEPGAEEKFKEIAEAYDVLSDPRKREIFDRYGEEGLKGSDIGGGGSGGGGSGGGGSGGGGSAAASNWKWWPGIFDGLESNWKWWPGIFD
B15: Construct 1, JB1 (other)
chain: MGKDYYQTLGLARGASDEEIKRAYRRQALRYHPDKNKEPGAEEKFKEIAEAYDVLSDPRKREIFDRYGEEGLKGSDIAAALESRDYKDDDDK
B16: Construct 3, QBP1-JB1 (designed binder)
chain: MGKPIPNPLLGLDSTGTGSSNWKWWPGIFDEFMGKDYYQTLGLARGASDEEIKRAYRRQALRYHPDKNKEPGAEEKFKEIAEAYDVLSDPRKREIFDRYGEEGLKGSDIAAALE
B17: Construct 16, JB1-2XQBP1 (rigid linker) (designed binder)
chain: MGKDYYQTLGLARGASDEEIKRAYRRQALRYHPDKNKEPGAEEKFKEIAEAYDVLSDPRKREIFDRYGEEGLKGSDIEAAAKAAASNWKWWPGIFDGLESNWKWWPGIFD
B18: Construct 15, JB1-2XQBP1 (no flexible linker) (designed binder)
chain: MGKDYYQTLGLARGASDEEIKRAYRRQALRYHPDKNKEPGAEEKFKEIAEAYDVLSDPRKREIFDRYGEEGLKGSDIAAASNWKWWPGIFDGLESNWKWWPGIFD

target: GFP-HTTQ74 reporter construct; assay: cell-based or functional assay

Binder | Reduction of Aggregation (%), filter trap assay [%]
B1 | 24.9
B2 | 96.3

target: GFP-HTTQ74 reporter construct; assay: cell-based or functional assay; remark: another data set of the same source

Binder | Reduction (%) of protein aggregation [%]
B3 | -27
B4 | 89
B2 | 96.1
B5 | 15.7

target: GFP-HTTQ74 reporter construct; assay: cell-based or functional assay; remark: another data set of the same source

Binder | % Aggregation (relative to Q74 alone), filter trap assay [%]
B6 | 32
B7 | 91
B8 | 91
B1 | 29.7
B9 | 93
B10 | 40.3

target: GFP-HTTQ74 reporter construct; assay: cell-based or functional assay; remark: another data set of the same source

Binder | % Aggregation (relative to Q74 alone), filter trap assay [%]
B11 | 41.1
B12 | 75.9
B1 | 9.86
B13 | 5.62
B14 | 23
B15 | 127
B16 | 67.5

target: GFP-HTTQ74 reporter construct; assay: cell-based or functional assay; remark: another data set of the same source

Binder | % Aggregation (relative to Q74 alone), filter trap assay [%]
B17 | 17.6
B18 | 24.5
B1 | 24.9
